According to publication PMC2761280:
Like-named read-outs stand apart in the source and are kept apart here.

T1: POLGβ (his)10 (UniProt Q9UHN1 26-485)
T1 sequence: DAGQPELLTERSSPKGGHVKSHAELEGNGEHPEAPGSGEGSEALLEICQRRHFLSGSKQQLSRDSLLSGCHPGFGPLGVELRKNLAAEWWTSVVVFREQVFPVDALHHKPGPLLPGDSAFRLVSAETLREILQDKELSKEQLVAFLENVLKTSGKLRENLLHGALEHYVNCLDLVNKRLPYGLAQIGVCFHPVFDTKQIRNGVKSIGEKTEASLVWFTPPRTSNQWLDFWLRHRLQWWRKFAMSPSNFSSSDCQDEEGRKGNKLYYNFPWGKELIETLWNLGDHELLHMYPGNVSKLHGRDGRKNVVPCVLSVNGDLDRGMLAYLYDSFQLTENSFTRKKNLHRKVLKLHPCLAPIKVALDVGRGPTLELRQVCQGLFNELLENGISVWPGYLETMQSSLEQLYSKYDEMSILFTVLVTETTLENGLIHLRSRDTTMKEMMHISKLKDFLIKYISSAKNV

B1: oligonucleotide C (free ss oligo) (ssDNA)
DNA: ACCGCTATGTATTTCGTACATTACTGCCAGCCACCATGAATATTGTACGGTACCATAAATACTTGACCACCTGTAGTACATAAAAACCCAATCCACATCAAAACCCCCTCCCCATGCTTA

Columns and labels:
Experiment in all cases: EMSA
POLGα [1] = biological target: T2, POLGα (UniProt P54098 26-1239)
POLGβ (his)10 [2] = biological target: T1, POLGβ (his)10
POLGα [3] = biological target: T2, POLGα; remark: listed apart in the source
POLGβ (his)10 [4] = biological target: T1, POLGβ (his)10; remark: listed apart in the source

T2 sequence (P54098 26-1239): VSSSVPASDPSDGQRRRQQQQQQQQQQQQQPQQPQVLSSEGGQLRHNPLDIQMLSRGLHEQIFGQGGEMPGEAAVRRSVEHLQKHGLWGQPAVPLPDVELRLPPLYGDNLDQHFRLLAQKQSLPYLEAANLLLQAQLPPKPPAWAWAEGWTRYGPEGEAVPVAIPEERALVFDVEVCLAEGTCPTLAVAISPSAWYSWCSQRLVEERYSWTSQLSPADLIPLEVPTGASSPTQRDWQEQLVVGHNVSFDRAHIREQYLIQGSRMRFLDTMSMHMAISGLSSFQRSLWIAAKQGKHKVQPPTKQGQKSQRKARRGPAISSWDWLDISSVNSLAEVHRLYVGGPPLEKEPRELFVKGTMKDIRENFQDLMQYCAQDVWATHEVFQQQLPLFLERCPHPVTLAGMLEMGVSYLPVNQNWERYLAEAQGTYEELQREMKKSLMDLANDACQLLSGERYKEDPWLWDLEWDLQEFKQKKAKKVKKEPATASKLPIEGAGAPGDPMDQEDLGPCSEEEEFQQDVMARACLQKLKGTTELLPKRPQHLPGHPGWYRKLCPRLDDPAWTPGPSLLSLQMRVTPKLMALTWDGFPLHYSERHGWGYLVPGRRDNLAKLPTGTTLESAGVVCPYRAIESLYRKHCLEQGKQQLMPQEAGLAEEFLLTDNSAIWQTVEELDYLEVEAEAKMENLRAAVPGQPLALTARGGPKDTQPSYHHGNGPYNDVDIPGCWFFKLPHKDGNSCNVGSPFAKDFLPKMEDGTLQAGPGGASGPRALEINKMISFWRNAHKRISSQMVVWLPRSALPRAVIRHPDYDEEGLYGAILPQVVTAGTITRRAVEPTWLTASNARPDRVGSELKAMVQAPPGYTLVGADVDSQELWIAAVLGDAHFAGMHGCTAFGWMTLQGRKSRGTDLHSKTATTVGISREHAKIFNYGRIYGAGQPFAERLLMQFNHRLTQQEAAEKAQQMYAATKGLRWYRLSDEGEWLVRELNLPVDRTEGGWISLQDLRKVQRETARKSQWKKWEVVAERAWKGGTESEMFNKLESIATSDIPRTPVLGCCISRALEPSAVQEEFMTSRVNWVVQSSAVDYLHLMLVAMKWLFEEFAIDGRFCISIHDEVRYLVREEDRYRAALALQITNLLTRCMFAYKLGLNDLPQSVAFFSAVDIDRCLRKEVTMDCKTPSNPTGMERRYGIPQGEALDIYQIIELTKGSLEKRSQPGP

| Binder | Kd (POLGα [1]) | binding result (POLGβ (his)10 [2]) | binding result (POLGα [3]) | binding result (POLGβ (his)10 [4]) |
| --- | --- | --- | --- | --- |
| CCGGTCGTACGGAAAACCTGTATTTTCAGGGCT (ssDNA) [33-mer ss oligonucleotide] | 92 nM | no binding |  |  |
| B1 |  |  | binds | no binding |
